Where a chain is given by its changes, count along the chain named. Like-named read-outs stand apart in the source and are kept apart here.
Tests used:
[1] = target: T1, p75^NTR (LNGFR, p75) (Homo sapiens, UniProt P08138); details: equilibrium binding studies, neurotrophin-responsive neurons; cited from earlier work
T1 construct: host or cells: neurotrophin-responsive neurons
T1 sequence (P08138 29-427): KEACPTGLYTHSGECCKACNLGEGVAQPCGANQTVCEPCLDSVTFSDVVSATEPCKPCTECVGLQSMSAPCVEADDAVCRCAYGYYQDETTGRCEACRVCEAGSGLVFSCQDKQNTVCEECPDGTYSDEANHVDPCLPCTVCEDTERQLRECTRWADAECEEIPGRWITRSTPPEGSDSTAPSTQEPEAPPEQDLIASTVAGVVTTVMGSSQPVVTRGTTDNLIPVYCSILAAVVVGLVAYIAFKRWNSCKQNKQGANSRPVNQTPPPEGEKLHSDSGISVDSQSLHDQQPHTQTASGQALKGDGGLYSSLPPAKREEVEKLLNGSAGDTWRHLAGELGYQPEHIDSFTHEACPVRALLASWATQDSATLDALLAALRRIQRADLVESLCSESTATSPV

[2] = tested on: cisplatinum induced neuropathy; assay: Cisplatinum induced neuropathy in adult rats, H-wave sensory conduction velocity; type: in vivo, rat; details: 1 mg/kg three times per week subcutaneously for four weeks, continued cisplatinum
Description: In order to create an animal model of cisplatinum induced neuropathy, adult rats were dosed with cisplatinum twice a week for sixteen weeks with 1 mg/kg intraperitoneally (IP). At this point, rats were split into four groups. All four groups continued receiving cisplatinum twice weekly. […] The NT-3 doses were given subcutaneously, while the Mabs and saline were administered IV. This treatment regime was continued for an additional four weeks, for a total of twenty weeks of cisplatinum administration.

[3] = tested on: pyridoxine toxicity; details: cited from earlier work
[4] = tested on: cisplatin sensory neuropathy; details: rats, cited from earlier work
[5] = target: T2, trkC H318A (Homo sapiens, UniProt Q16288, H349A/S70N); assay: Binding to trkC single amino acid mutants (EC50 ratio)
T2 construct: made in house
Description: (§1) A total of 26 single amino acid mutations were made and evaluated for their effect on binding to anti-trkC monoclonal antibodies.

[6] = target: T3, trkC R285A (Homo sapiens, UniProt Q16288, R316A/S70N); assay: as above; details: NB = no binding observed
T3 construct: made in house
Description: (§2) Site-directed mutagenesis approach was used to determine the contribution of selected individual amino acid residues of domain 5 in the recognition by anti-trkC antibodies. […] A total of 26 single amino acid mutations were made and evaluated for their effect on binding to anti-trkC monoclonal antibodies. The values shown in Table 5 represent the ratio of binding to anti-trkC antibody of mutant vs wildtype trkC.

[7] = target: T4, trkC E287K (Homo sapiens, UniProt Q16288, E318K/S70N); assay: as above; details: NB = no binding observed
T4 construct: made in house
Description: as §2

[8] = target: gD-trkC (Homo sapiens, UniProt Q16288); assay: BIAcore surface plasmon resonance (SPR) affinity; type: binding
Description: Affinities of anti-trkC agonist monoclonal antibodies were determined using BIAcore-2000™ surface plasmon resonance (SPR) system (BIAcore, Inc., Piscataway, N.J.). CM5 biosensor chips were activated with N-ethyl-N′-(3-dimethylaminopropyl)-carbodiimide hydrochloride (EDC) and N-hydroxysuccinimide (NHS) according to the supplier's instructions. In the first series of binding experiments, the antigen, gD-tagged trkC, was diluted into 10 mM sodium acetate buffer (pH 4.8), and injected over the activated chip at a concentration of 0.09 mg/mL. Using variable exposure times, four ranges of antigen density were achieved: 14,000-17,000 response units (RU), 7000-9000 RU, 2000-3000 RU, and 400-600 RU. The chip was blocked with ethanolamine.
In the first series of kinetic measurements, anti-trkC antibodies (IgG's) were diluted into running buffer (PBS containing 0.05% Tween-20 and 0.01% sodium azide) and 0.03 mL (667 nM) was injected over the biosensor chip at 25° C. at a flow rate of 0.01 mL/min.
In a second series of experiments, the IgG's (0.1 mg/mL in 10 mM sodium acetate, pH 4.8) were immobilized as described above, except that antibody density was limited to 1000-2000 RU. Two-fold serial dilutions of gD-trkC in the range of […] to 29 nM were then injected over the biosensor chip for kinetics measurements as described above.
The dissociation phase of each kinetic curve were fit to a single exponential dissociation rate (koff), and these rates were used in the calculation of the association rate (kon) from the injection phase, using a simple 1:1 Langmuir binding model (Lofas & Johnsson, 1990).
Equilibrium dissociation constants, Kd's, from SPR measurements were calculated as the ratio koff/kon.
The affinities of anti-trkC antibodies for gD-trkC were measured in SPR kinetics experiments with either antigen or antibody immobilized. Apparent affinities determined from experiments using low densities of immobilized antigen (0.4 to 0.6 ng/mm2), were generally consistent with those determined in experiments using immobilized IgG (see Table 2). […] In some cases, no binding could be detected when trkC was injected over immobilized IgG. This may have occurred because immobilization of the IgG led to steric blocking of the antigen-binding site.

[9] = target: T5, trkC L284E (Homo sapiens, UniProt Q16288, L315E/S70N); assay: Binding to trkC single amino acid mutants (EC50 ratio); details: NB = no binding observed
T5 construct: made in house
Description: as §2

[10] = target: T6, trkC L286H (Homo sapiens, UniProt Q16288, L317H/S70N); assay: as above; details: NB = no binding observed
T6 construct: made in house
Description: as §2

[11] = target: wildtype trkC (Homo sapiens, UniProt Q16288, S70N); assay: as above; details: wildtype trkC (reference)
Description: as §2

[12] = tested on: trkC N335A; design: species or system human; details: NB = no binding observed
Description: as §1

[13] = gD-trkC binding to immobilized IgG's (1000-3000 RU)

NGF: nerve growth factor, first identified member of the neurotrophin family
Kd [1]: 2 nM

NT-3: neurotrophin-3, the natural ligand of trkC receptor; positive control and comparator
sensory conduction velocity (H-wave) [2]: improvement of this lowered conduction velocity | behavioral and electrophysiological sequelae of pyridoxine toxicity (beam-walking, H waves) ([3]; NT-3 5-20 mg/kg/day, s.c., during chronic pyridoxine treatment): largely attenuated | degeneration of sensory fibers in the dorsal column of the spinal cord ([3]; NT-3 administration during chronic pyridoxine treatment): prevented degeneration of sensory fibers in the dorsal column of the spinal cord | cytoplasmic distribution of neurofilament protein in large sensory neurons and numbers of myelinated fibers in sural nerves ([4]; cisplatin): corrected | H-reflex-related sensory nerve conduction velocity reduced by cisplatin [4]: restored to normal levels

B1: BDNF: brain-derived neurotrophic factor, a neurotrophin (protein, UniProt P23560 19-247, looked up)
Neurotrophic factor BDNF …: APMKEANIRGQGGLAYPGVRTHGTLESVNGPKAGSRGLTSLADTFEHVIEELLDEDQKVRPNEENNKDADLYTSRVMLSSQVPLEPPLLFLLEEYKNYLDAANMSMRVRRHSDPARRGELSVCDSISEWVTAADKKTAVDMSGGTVTVLEKVPVSKGQLKQYFYETKCNPMGYTKEGCRGIDKRHWNSQCRTTQSYVRALTMDSKKRIGWRFIRIDTSCVCTLTIKRGR
Kd [1]: 2 nM

B2: Mab 2250: murine IgG1 agonist anti-trkC monoclonal antibody; hybridoma ATCC PTA-2149; heavy chain SEQ ID NO: 42, light chain SEQ ID NO: 49 (antibody)
heavy: NQVQLQQSGAELMQPGASVKISCKSTGYTFSNFWIEWVKQRPGHGLEWIGEILPGSDNTNYNEKFKGKATFTADTSSNTAYMQLSSLTSEDSAVYYCARKNRNYYGNYVVWGQGTLVTVSAC
light: NDIVMTQSPASLAVSLGQRATISYRASKSVSTSGYSYMHWNQQKPGQPPRLLIYLVSNLESGVPARFSGSGSGTDFTLNIHPVEEEDAATYYCQHIRELTRSARGQSWKKRC
modifications: Murine
ratio of binding of mutant vs wildtype trkC (EC50 divided by EC50 of wildtype trkC) [5]: 1.0 | ratio of binding of mutant vs wildtype trkC (EC50 divided by EC50 of wildtype trkC) [6]: 2.6 | ratio of binding of mutant vs wildtype trkC (EC50 divided by EC50 of wildtype trkC) [7]: 0.8 | Kd ([8]; IgG's binding to immobilized gD-trkC (400-600 RU), read-out: Kd, Immobilized gD-trkC): 8.7 nM | Kd ([8]; Table 3, read-out: Affinity Kd): 8.7 nM | Kd ([8]; gD-trkC binding to immobilized IgG's (1000-3000 RU), read-out: Kd, Immobilized IgG): 28 nM | ratio of binding of mutant vs wildtype trkC (EC50 divided by EC50 of wildtype trkC) [9]: 0.6 | ratio of binding of mutant vs wildtype trkC (EC50 divided by EC50 of wildtype trkC) [10]: 0.4 | ratio of binding of mutant vs wildtype trkC (EC50 divided by EC50 of wildtype trkC) [11]: 1.0 | ratio of binding of mutant vs wildtype trkC (EC50 divided by EC50 of wildtype trkC) [12]: 0.5

B3: Mab 2345: human IgG2 agonist anti-trkC monoclonal antibody; hybridoma ATCC PTA-2146; heavy chain SEQ ID NO: 47, light chain SEQ ID NO: 54 (antibody, listed as Homo sapiens, V domains shown)
VH: NQVQLQESGPGLVKPSQTLSLTCTVSGGSISSGGYYWSWIRQHPEKGLEWIGYIFYSGRTYYNPSLKSRVTISVDTSKNQFSLKLNSVTAADTAVYYCARERIAAAGADYYYNGLDVWGQGTTVTVSSC
VL: NEIVLTQSPGTLSLSPGERATLSCRASQSVSSNYLTWYQQKPGQAPRLLIYGASSRATGIPDRFSGSGSGTDFTLTISRLEPEDFAVYYCQQYGRSPPITFGQGTRLEIKRC
Kd, Immobilized IgG [8, 13]: NDB

B4: Mab 2349: human IgG4 agonist anti-trkC monoclonal antibody; hybridoma ATCC PTA-2153; heavy chain SEQ ID NO: 48, light chain SEQ ID NO: 55 (antibody, listed as Homo sapiens, V domains shown)
VH: B3 VH with G34Y, E45G, F55Y, R59S, V70L, N86S, A108T, D116A
VL: B3 VL with E2G, L22F, V30G, N33T, T36A
Kd, Immobilized IgG [8, 13]: NDB
